Columns and labels:
[1] = biological target: Bovine α-chymotrypsin (bovine); test: complex dissociation followed by regain of protease activity; 5 µM serpin-chymotrypsin complex diluted 200–2000-fold (0–25 nM) into assay buffer with substrate, 25 °C; apparent rate constant k_(diss,app)
[2] = biological target: Bovine α-chymotrypsin (bovine); test: enzyme inhibition kinetics (progress curves); inhibition of chymotrypsin by several serpin concentrations followed over time at 25 °C; slope of kobs against inhibitor concentration, corrected for non-productive turnover (k'ass); protease assay buffer pH 8.0 with chromogenic substrate

koff [1]: 7.5e-06 s⁻¹ | kon [2]: 690000 M⁻¹ s⁻¹
Substance: α1-antitrypsin (from UniProt P01009 25-418) (natural protein)

Reference: PMC5794792
